Values of other authors in patent publication US12509496B2 (Shanghai Minwei Biotechnology Co., LTD, priority 2020, dated 2025).

Settings: in the blood; cited from earlier work

In the case of dulaglutide, the half-life in vivo is given as 108 to 113 h.
